# Source: paper PMC9785812 (Pharmaceutics, 2022)
# Read-outs that look alike come from different tables or passages of the source.
# Assays:
# SSTR2 receptors = molecular target: T1, SSTR2 receptors (Rattus norvegicus, UniProt P30680); assay: Cell binding assay (membrane association and internalization); assay type: cell-based; details: for decrease of binding by co-incubation with unlabeled DOTA-TATE: 1 h
# T1 construct: CA20948 cells are derived from rat pancreas and express SSTR2 endogenously; endogenous in cells; host or cells: CA20948 rat pancreatic cancer cells
# Experimental: (§1) Rat pancreatic cancer cell line CA20948 was used given the somatostatin receptor 2 (SSTR2) overexpression as it is found in many human neuroendocrine tumors. Cells were grown in DMEM High Glucose and Pyruvate medium (Gibco 41966029) supplemented with 10% fetal bovine serum (Gibco 10270106) and 100 U/mL penicillin-streptomycin (Sigma-Aldrich P4333) and were maintained in a humidified incubator at 37 °C with 5% CO2 supply. All in vitro results were obtained from a minimum of three replicates per condition.
# Hereafter, fractions were collected. First, the membrane-bound fraction was collected following 10 min incubation at room temperature in strip buffer (50 mM glycine, 100 mM NaCl, pH 2.8). Then, the internalized fraction was collected by 30 min of cell lysis (1 M NaOH) at room temperature. […] In addition, total cell number per well was obtained using a MOXI™ automated cell counter (VWR, Leuven, Belgium).
# CA20948 cells = assay: MTS viability assay; assay type: cell-based, rat; details: 4 h treatment, MTS after 4 days, relative to untreated cells, mean ± SD
# Experimental: as §1
# A total of 10,000 cells were seeded per well into a 96-well plate (31,250 cells/cm²). […] After 4 h incubation at 37 °C in 5% CO2, cells were washed and new medium was added. Then, after 4 days, MTS reagent was prepared according to the manufacturer’s instructions and added to the cells. Absorbance was measured at 490 nm using the BioTek Synergy H1 reader (Agilent). Cell viability was obtained as the ratio of the absorbance of a sample well to the average absorbance of untreated (0 MBq/mL) wells, after subtraction of the background signal of wells containing MTS reagent without cells. Statistical significance (p < 0.05) was determined using linear models.
# [1] = Ex vivo biodistribution in CA20948 xenograft mice; details: mouse, iv
# Experimental: Quantification of activity was performed with an automated gamma counter equipped with a 3-in NaI(Tl) detector coupled to a multichannel analyzer (2480 Wizard^2, Perkin Elmer, Zaventem, Belgium). The results were corrected for background signal, physical decay during counting and detector dead time.
# Male NMRI nude mice (between 8 and 15 weeks old) were anesthetized with 2.5% isoflurane in O2 at a flow rate of 0.2 L min^−1 and subcutaneously injected on the right shoulder with 1 × 10^6 CA20948 cells resuspended in PBS with 30% matrigel®. Tumor dimensions were measured two or three times per week and volume was calculated as length × width × height. Mice were sacrificed if the tumor volume exceeded 600 mm^3 or if more than 10% of the original body weight was lost.
# Additionally, similar biodistribution studies were performed with free (unlabeled) [^153Sm]SmCl3 to identify the organs with ^153Sm accumulation in case of release from the complex. […] The mice were sacrificed by an overdose pentobarbital (200 µL of 60 mg/mL) 1, 4, 24 and 72 h post-injection (p.i.) (n = 3–4 per time point). Blood was collected via cardiac puncture. Organs of interest were collected in tared tubes and weighed. The activity in the different organs was measured in the gamma counter. For the calculation of the total activity in the blood, bone and muscle, the masses were assumed to be, respectively, 7, 12 and 40% of the total body mass. Data were expressed as a percentage of injected activity (%IA) and standardized uptake value (SUV). %IA was calculated as (counts per min (cpm) in organ)/(IA converted to cpm) × 100. SUV was calculated as (activity in cpm in organ/weight of organ in g)/(IA/total body weight in g).
# [2] = male, NMRI nude, bone, total radioactivity, read-out: Bone SUV
# [3] = male, NMRI nude, in vivo, total radioactivity, read-out: Excreted %IA
# [4] = male, NMRI nude, intestines, total radioactivity, read-out: Intestines %IA
# [5] = male, NMRI nude, kidneys, total radioactivity, read-out: Kidneys %IA
# [6] = male, NMRI nude, liver, total radioactivity, read-out: Liver %IA
# [7] = male, NMRI nude, muscle, total radioactivity, read-out: Muscle %IA
# [8] = male, NMRI nude, pancreas, total radioactivity, read-out: Pancreas %IA
# [9] = male, NMRI nude, pancreas, total radioactivity, read-out: Pancreas SUV
# [10] = male, NMRI nude, spleen, total radioactivity, read-out: Spleen SUV
# [11] = male, NMRI nude, stomach, total radioactivity, read-out: Stomach %IA
# [12] = male, NMRI nude, tumor, total radioactivity, read-out: Tumor %IA
# T1 sequence (P30680 whole entry): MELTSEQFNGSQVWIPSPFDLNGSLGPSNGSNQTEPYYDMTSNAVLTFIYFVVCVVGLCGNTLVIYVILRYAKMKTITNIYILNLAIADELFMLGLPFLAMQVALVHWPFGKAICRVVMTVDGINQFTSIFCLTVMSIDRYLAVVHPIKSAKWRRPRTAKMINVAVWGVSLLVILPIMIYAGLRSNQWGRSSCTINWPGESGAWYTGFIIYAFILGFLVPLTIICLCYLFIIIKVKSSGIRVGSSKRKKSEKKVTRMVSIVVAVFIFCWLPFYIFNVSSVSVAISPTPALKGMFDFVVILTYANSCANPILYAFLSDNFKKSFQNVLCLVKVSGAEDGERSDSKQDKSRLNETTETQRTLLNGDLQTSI
smiles,measurement,setting,value
"C[C@@H](O)[C@H](NC(=O)[C@@H]1CSSC[C@H](NC(=O)[C@@H](Cc2ccccc2)NC(=O)CN2CCN(CC(=O)O)CCN(CC(=O)O)CCN(CC(=O)O)CC2)C(=O)N[C@@H](Cc2ccc(O)cc2)C(=O)N[C@H](Cc2c[nH]c3ccccc23)C(=O)N[C@@H](CCCCN)C(=O)N[C@@H]([C@@H](C)O)C(=O)N1)C(=O)O [[^153Sm]Sm-DOTA-TATE, metal not drawn]",internalized fraction of cell-associated activity,"SSTR2 receptors; 2.5 nM (2.7 kBq), 1 h incubation, mean ± SD",79 ± 2%
same,decrease of binding by co-incubation with unlabeled DOTA-TATE,SSTR2 receptors; 4-fold molar excess of unlabeled DOTA-TATE,about 40%
same,decrease of binding by co-incubation with unlabeled DOTA-TATE,SSTR2 receptors; 4000-fold molar excess of unlabeled DOTA-TATE,~92%
same,cell viability,CA20948 cells; 1.25 MBq/mL,significantly lowered viability
same,"cell viability, reduced down to",CA20948 cells; lowest viability over 0-10 MBq/mL,48 ± 6%
same,SUV at 1 h,"[1]; male, NMRI nude, blood, total radioactivity, read-out: Blood SUV",0.1 SUV
same,tissue uptake dose at 4 h,"[1]; male, NMRI nude, bone, total radioactivity, read-out: Bone %IA",0.5 ± 0.1 %ID
same,SUV at 1 h,[1]; [2],0.1 SUV
same,SUV at 4 h,[1]; [2],0.1 SUV
same,tissue uptake dose at 1 h,[1]; [3],80 ± 4.4 %ID
same,tissue uptake dose at 4 h,[1]; [3],83 ± 3.5 %ID
same,tissue uptake dose at 24 h,[1]; [3],94.1 ± 3.6 %ID
same,tissue uptake dose at 72 h,[1]; [3],96.6 ± 1.7 %ID
same,tissue uptake dose at 4 h,[1]; [4],4.4 ± 1.5 %ID
same,tissue uptake dose at 72 h,[1]; [4],0.1 %ID
same,SUV at 72 h,"[1]; male, NMRI nude, kidneys, total radioactivity",0.1 SUV
same,tissue uptake dose at 4 h,[1]; [5],2.4 ± 0.6 %ID
same,tissue uptake dose at 72 h,[1]; [5],0.1 %ID
same,SUV at 24 h,"[1]; male, NMRI nude, kidneys, total radioactivity, read-out: Kidneys SUV",0.3 ± 0.1 SUV
same,tissue uptake dose at 1 h,[1]; [6],0.4 ± 0.1 %ID
same,tissue uptake dose at 24 h,[1]; [6],0.1 %ID
same,SUV at 1 h,"[1]; male, NMRI nude, liver, total radioactivity, read-out: Liver SUV",0.1 SUV
same,tissue uptake dose at 1 h,"[1]; male, NMRI nude, lungs, total radioactivity, read-out: Lungs %IA",0.1 %ID
same,SUV at 1 h,"[1]; male, NMRI nude, lungs, total radioactivity, read-out: Lungs SUV",0.1 SUV
same,tissue uptake dose at 1 h,[1]; [7],1 ± 0.4 %ID
same,tissue uptake dose at 24 h,[1]; [7],0.1 %ID
same,SUV at 4 h,"[1]; male, NMRI nude, muscle, total radioactivity, read-out: Muscle SUV",0.1 SUV
same,tissue uptake dose at 1 h,[1]; [8],1 ± 0.1 %ID
same,tissue uptake dose at 4 h,[1]; [8],0.4 ± 0.3 %ID
same,tissue uptake dose at 24 h,[1]; [8],0.1 %ID
same,SUV at 4 h,[1]; [9],0.6 ± 0.4 SUV
same,SUV at 24 h,[1]; [9],0.1 SUV
same,SUV at 1 h,[1]; [10],0.1 SUV
same,SUV at 4 h,[1]; [10],0.1 SUV
same,tissue uptake dose at 1 h,[1]; [11],0.7 ± 0.1 %ID
same,tissue uptake dose at 4 h,[1]; [11],1 ± 0.3 %ID
same,tissue uptake dose at 72 h,[1]; [11],0.1 %ID
same,tissue uptake dose at 4 h,[1]; [12],6.1 ± 3.7 %ID
same,tissue uptake dose at 24 h,[1]; [12],3.2 ± 2.9 %ID
same,tissue uptake dose at 72 h,[1]; [12],2.2 ± 1.6 %ID
same,SUV at 4 h,"[1]; male, NMRI nude, tumor, total radioactivity, read-out: Tumor SUV",4.4 ± 1.1 SUV
same,tissue uptake dose at 4 h,"[1]; male, NMRI nude, whole blood, total radioactivity, read-out: Blood %IA",0.1 %ID
same,tissue uptake dose at 24 h,"[1]; bone, total radioactivity, 24 h p.i., CA20948 tumor bearing male NMRI-nude mice, ~2-3 MBq i.v., mean ± SD, n = 3-4, read-out: Bone %IA",0.2 ± 0.1 %ID
same,tissue uptake dose at 72 h,"[1]; bone, total radioactivity, 72 h p.i., CA20948 tumor bearing male NMRI-nude mice, ~2-3 MBq i.v., mean ± SD, n = 3-4, read-out: Bone %IA",0.2 %ID
same,Blood %IA,[1]; in vivo,0.0 ± 0.0 %IA
same,Blood SUV,[1]; in vivo,0.0 ± 0.0
same,Bone %IA,[1]; in vivo,0.4 ± 0.0 %IA
same,Bone SUV,[1]; in vivo,0.0 ± 0.0
same,Brain %IA,[1]; in vivo,0.0 ± 0.0 %IA
same,Brain SUV,[1]; in vivo,0.0 ± 0.0
same,Heart %IA,[1]; in vivo,0.0 ± 0.0 %IA
same,Heart SUV,[1]; in vivo,0.0 ± 0.0
same,Liver SUV,[1]; in vivo,0.0 ± 0.0
same,Lungs %IA,[1]; in vivo,0.0 ± 0.0 %IA
same,Lungs SUV,[1]; in vivo,0.0 ± 0.0
same,Muscle %IA,[1]; in vivo,0.0 ± 0.0 %IA
same,Muscle SUV,[1]; in vivo,0.0 ± 0.0
same,Pancreas %IA,[1]; in vivo,0.0 ± 0.0 %IA
same,Pancreas SUV,[1]; in vivo,0.0 ± 0.0
same,Spleen %IA,[1]; in vivo,0.0 ± 0.0 %IA
same,Spleen SUV,[1]; in vivo,0.0 ± 0.0
same,tissue uptake dose at 1 h,"[1]; intestines, total radioactivity, 1 h p.i., CA20948 tumor bearing male NMRI-nude mice, ~2-3 MBq i.v., mean ± SD, n = 3-4, read-out: Intestines %IA",2 ± 0.3 %ID
same,tissue uptake dose at 24 h,"[1]; intestines, total radioactivity, 24 h p.i., CA20948 tumor bearing male NMRI-nude mice, ~2-3 MBq i.v., mean ± SD, n = 3-4, read-out: Intestines %IA",0.6 ± 0.2 %ID
same,tissue uptake dose at 1 h,"[1]; total radioactivity, 1 h p.i., CA20948 tumor bearing male NMRI-nude mice, ~2-3 MBq i.v., mean ± SD, n = 3-4, read-out: Tumor %IA",3.7 ± 2 %ID
same,tissue uptake dose at 24 h,"[1]; kidneys, total radioactivity, 24 h p.i., CA20948 tumor bearing male NMRI-nude mice, ~2-3 MBq i.v., mean ± SD, n = 3-4, read-out: Kidneys %IA",0.5 ± 0.2 %ID
same,tissue uptake dose at 4 h,"[1]; liver, total radioactivity, 4 h p.i., CA20948 tumor bearing male NMRI-nude mice, ~2-3 MBq i.v., mean ± SD, n = 3-4, read-out: Liver %IA",0.2 %ID
same,tissue uptake dose at 72 h,"[1]; liver, total radioactivity, 72 h p.i., CA20948 tumor bearing male NMRI-nude mice, ~2-3 MBq i.v., mean ± SD, n = 3-4, read-out: Liver %IA",0.2 %ID
same,SUV at 1 h,"[1]; muscle, total radioactivity, 1 h p.i., CA20948 tumor bearing male NMRI-nude mice, ~2-3 MBq i.v., mean ± SD, n = 3-4, read-out: Muscle SUV",0.2 ± 0.1 SUV
same,tissue uptake dose at 4 h,"[1]; muscle, total radioactivity, 4 h p.i., CA20948 tumor bearing male NMRI-nude mice, ~2-3 MBq i.v., mean ± SD, n = 3-4, read-out: Muscle %IA",0.4 ± 0.2 %ID
same,SUV at 1 h,"[1]; pancreas, total radioactivity, 1 h p.i., CA20948 tumor bearing male NMRI-nude mice, ~2-3 MBq i.v., mean ± SD, n = 3-4, read-out: Pancreas SUV",1.2 ± 0.2 SUV
same,tissue uptake dose at 24 h,"[1]; stomach, total radioactivity, 24 h p.i., CA20948 tumor bearing male NMRI-nude mice, ~2-3 MBq i.v., mean ± SD, n = 3-4, read-out: Stomach %IA",0.3 ± 0.2 %ID
same,tissue uptake dose at 1 h,"[1]; whole blood, total radioactivity, 1 h p.i., CA20948 tumor bearing male NMRI-nude mice, ~2-3 MBq i.v., mean ± SD, n = 3-4, read-out: Blood %IA",0.7 ± 0.2 %ID
